Consider 1 substance from US20120015841A1.

The target of the test is human GC-C (guanylate cyclase C) stably expressed in 293T cells (human) (UniProt P25092). Briefly: cell-based or functional assay.
Sequence of human GC-C (guanylate cyclase C) stably expressed in 293T cells (human) (P25092 24-1073): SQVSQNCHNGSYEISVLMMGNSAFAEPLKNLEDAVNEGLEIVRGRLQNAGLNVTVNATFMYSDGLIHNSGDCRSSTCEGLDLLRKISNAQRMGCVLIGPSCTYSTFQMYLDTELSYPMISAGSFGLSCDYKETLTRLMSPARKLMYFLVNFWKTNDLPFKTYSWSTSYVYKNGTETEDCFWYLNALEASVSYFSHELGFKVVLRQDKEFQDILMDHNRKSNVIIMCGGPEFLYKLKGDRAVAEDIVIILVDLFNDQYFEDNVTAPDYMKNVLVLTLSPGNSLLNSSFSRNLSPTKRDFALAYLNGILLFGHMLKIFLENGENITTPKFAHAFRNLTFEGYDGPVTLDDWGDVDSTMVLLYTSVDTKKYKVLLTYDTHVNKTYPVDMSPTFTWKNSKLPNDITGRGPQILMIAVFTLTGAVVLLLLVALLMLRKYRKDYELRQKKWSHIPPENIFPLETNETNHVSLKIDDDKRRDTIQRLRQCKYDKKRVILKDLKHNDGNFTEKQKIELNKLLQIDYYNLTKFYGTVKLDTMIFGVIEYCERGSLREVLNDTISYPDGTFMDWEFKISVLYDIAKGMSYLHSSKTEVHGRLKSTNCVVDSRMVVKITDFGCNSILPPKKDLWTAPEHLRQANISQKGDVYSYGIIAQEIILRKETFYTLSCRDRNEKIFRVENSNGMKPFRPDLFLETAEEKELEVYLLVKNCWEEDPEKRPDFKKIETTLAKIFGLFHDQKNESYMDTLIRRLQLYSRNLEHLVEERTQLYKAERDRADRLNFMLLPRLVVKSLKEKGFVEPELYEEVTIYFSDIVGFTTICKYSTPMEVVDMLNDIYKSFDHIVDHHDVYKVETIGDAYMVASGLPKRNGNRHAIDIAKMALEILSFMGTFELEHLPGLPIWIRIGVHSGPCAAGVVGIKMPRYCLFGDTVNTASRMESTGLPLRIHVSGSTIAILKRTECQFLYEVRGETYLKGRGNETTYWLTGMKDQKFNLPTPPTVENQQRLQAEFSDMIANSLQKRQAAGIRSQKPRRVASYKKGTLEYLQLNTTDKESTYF

Turning to guanylin (peptide), the EC50 of the cGMP response (absorbance, Direct Cyclic GMP Enzyme Immunoassay Kit) to a guanylin dose-response, 30 min, GC-C-expressing 293T cell line is 1.1 nM and the cGMP level in the GC-C-expressing cell line treated with low concentrations of guanylin amounted to 6 pmol/mL.
